Test: yeast display, Sf9 membrane polyspecificity reagent, FACS + sequencing; frameworks hold sequencing errors
In short: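 A nanobody's polyreactivity label depends on the gate it was sorted from. Yeast display cells were stained with 10% biotinylated, detergent-solubilized Sf9 membrane reagent for 1 hour at 4 °C, enriched on streptavidin microbeads and sorted by FACS. The low and high (top ~1%) gates were set on anti-HA fluorescence for expression and streptavidin fluorescence for reagent binding.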

Sequence	polyreactivity (PSR sort gate)
QVQLVESGGGLVQAGGSLRLSCAASGIIFNSYAMGWYRQAPGKERELVATISGSGGSTYYADSVKGRFTISRDNAKNTVYFQMNSLKPEDTAVYSCAARTGRYYRRYDYWGQGTQVTVSS	high polyreactivity
QVQLVESGGGLVQAGGSLRLSCAASGIIFNYYAMGWYRQAPGKERELVAAISASGGSTYYADSVKGRFTISRDNAKNTVYLQMNSLKPEDTAVYYCNAAVLYRQYGRGDYWGQGTQVTVSS	low polyreactivity
QVQLVESGGGLVQAGGSLRLSCAASGIIFNYYAMGWYRQAPGKERELVAAISFSGGRTYYADSVKGRFTISRDNAKNTVYLQMNCLKPEDTAVYYCNAVYRNSILAFPGEYDYWGQGTQVTVSS	high polyreactivity
QVQLVESGGGLVQAGGSLRLSCAASGIIFPAYAMGWYRQEPGKDRELVAAISKRGGSTYYADSVKGRFTISRDNAKNTVYLQMNSLKPEDTAVYYCNVLLTQGATVGEYGYWGQGTQVTVSS	high polyreactivity
QVQLVESGGGLVQAGGSLRLSCAASGIIFPEYDRGWYRQAPGKERELVAAITKSDGRTYYADSVKGRFTISRDNAKNTVYLQMNSLKPEDTAVYYCNADPRVVAYLGFDSWGQGTQVTVSS	low polyreactivity
QVQLVESGGGLVQAGGSLRLSCAASGIIFPFYMGWYRQAPGKEREFVADITYSGGSTYYADSVKGRFTISRDNAKNTVYLQMNSLKPEDTAVYYCAAKFYWRGQSFRSGNFYWGQGTQVTVSS	high polyreactivity
QVQLVESGGGLVQAGGSLRLSCAASGIIFPGNAMGWNSQAPGKVRELVAAITSSDGSTYYADSVKGRFTISRDNAKNTVYVQMNSLKPEDTALYYCAADFKGLFSSELDYWGQGTQVTVSS	low polyreactivity
QVQLVESGGGLVQAGGSLRLSCAASGIIFPGYAMGWYRQAPGKERELVAAISSGGDTYYADSVKGRFTISRDNAKNTVYLQMNSLKPEDTAVYYCAAEYGLYAPGYYYWGQGTQVTVSS	low polyreactivity
QVQLVESGGGLVQAGGSLRLSCAASGIIFPGYAMGWYRQAPGKVRELVAAISSGGDTYYADSVKGLFTISRDNAKNTVYLQMNSLNPEDTAVYYCTAAQLSSDRTSTYGYWGQGTKVTVSS	low polyreactivity
QVQLVESGGGLVQAGGSLRLSCAASGIIFPYNAMGWYRQAPGKERELVAAITYRDGSTYYADSVKGRFTISRDNAKNTVYLQMNSLKPEDTAVYYCAADRYVYWDLYGYWGQGTQVTVSS	low polyreactivity
QVQLVESGGGLVQAGGSLRLSCAASGIIFPYYAMGWYRQAPGKERELVAAIDWSGTSTYYADSVKGRFTISRDNAKNTVYLQMNSLKPEDTAVYYCAADYPQAGLLYYYWGQGTQVTVSS	low polyreactivity
QVQLVESGGGLVQAGGSLRLSCAASGIIFPYYTMGWYRQAPGKERELVAAISTSGGSTYYADSVKGRFTISRDNAKNTVYLQMNSLKPEDTAVYFCAAELSYDYSHDYWGQGTQVTVSS	high polyreactivity
QVQLVESGGGLVQAGGSLRLSCAASGIIFQGNAMGWYRQAPGKERELVAAISSGGSTYYADSVKGRFTISRDNAKNTVYLQMNSLKPEDTAVYYCNAGAYVRYDYWGQGTQVTVSS	low polyreactivity
QVQLVESGGGLVQAGGSLRLSCAASGIIFQRNAMGWYRQAPGKERELVAAISASGGSTNYADSVKGRFTISRDNAKNTVYLQMNSLKPEDTAVYYCAVPARGTFLLRDGGRAEFDYWGQGTQVTVSS	low polyreactivity
QVQLVESGGGLVQAGGSLRLSCAASGIIFQRNAMGWYRQAPGQERELVAAISSGGRTYYADSVKGRFTISRDNAKNTVYLQMNSLKPEDTAVYYCNAASYSRGRARYDYWGQGTQVTVSS	high polyreactivity
QVQLVESGGGLVQAGGSLRLSCAASGIIFQYNAMGWYRQAPGKEREFVAAISYGGTSTYYADSVKGRFTISRDNAKNTVYLQMNSLKPEDTAVYYCAADYQGYTPSDGRYYWGQGTQVTVSS	low polyreactivity
QVQLVESGGGLVQAGGSLRLSCAASGIIFQYYAMGWYRQAPGKERELVAAISWSGGSTYYADSVKGRFTISRDNAKNTVYLQMNRLKPEDTAVYYCAARSRSYWPYEGDYWGQGTQVTVSS	low polyreactivity
QVQLVESGGGLVQAGGSLRLSCAASGIIFQYYAMGWYRQAPGKERELVAAISWSGGSTYYADSVKGRFTISRDNAKNTVYLQMNSLKPEDTAVYYCAARSRSYWPYEGDYWGQGTQVTVSS	low polyreactivity
QVQLVESGGGLVQAGGSLRLSCAASGIIFQYYVMGWYRQAPGKERELVAAIDKSGGSTYYADSVKGRFTISRDNAKNTVYLQMNSLKPEDTAVYYCAATSYAHKYYGYFGAIKYEYWGQGTQVTVSS	low polyreactivity
QVQLVESGGGLVQAGGSLRLSCAASGIIFQYYVMGWYRQAPGKERELVAAIDKSGGSTYYADSVKGRFTISRDNAKNTVYLQMNSLKPEDTAVYYCNRDRGWTRFYVYSTGAWLYDYWGQGTQVTVSS	low polyreactivity
QVQLVESGGGLVQAGGSLRLSCAASGIIFRAYAMGWYRQAPGKERELVAAITSRGGSTYYADSVKGRFTISLDNAKNTVYLQKNSLKPEDTAVYYCAADFTIPYWDANFDYWGQGTQVTVSS	low polyreactivity
QVQLVESGGGLVQAGGSLRLSCAASGIIFRDYAMGWYRQAPGKERELVAAINLDGTSTYYADSVKGRFTISRDNAKKTVYLQMNSLKPEDTAVYYCAAEYDNADYINYFLDMYYWGQGTQVTVSS	low polyreactivity
QVQLVESGGGLVQAGGSLRLSCAASGIIFRGYFMGWYRQATGKERELVAAISTSGGRTSYADSVKGRFTISRDNAKNTVYLQMNSLKPEDTAVYYCAARPLYSYSHWGYGYWGQGTQVTVSS	high polyreactivity
QVQLVESGGGLVQAGGSLRLSCAASGIIFRGYVMGWYRQAPGKERELVADISRGGSTYYADSVKGRFTISRDNAKNTVYLQMNSQKPEDTAVYYCAKDYYACYWEMDYWGQGTQVTVSS	low polyreactivity
QVQLVESGGGLVQAGGSLRLSCAASGIIFRLYAMGWYRQAPGTERELVAAISRRGDSTYYADSVKGRFTISRDNAKNTGYVQMNSLKPEDTAVYYCAAVYVPYYWLGRSRGLDYWGQGTQVSVSS	high polyreactivity
QVQLVESGGGLVQAGGSLRLSCAASGIIFRPYAMGWYRQAPGKERELVAAITGSGVSTYYADSVKGRFTISRDNAKNTVYLQMNSLKPEDTAVYYCAKRYNRGYHRYDYWGQGTHVTVSS	low polyreactivity
QVQLVESGGGLVQAGGSLRLSCAASGIIFRQYAMGWSRQEPGKERELVAGITGTGSTYYADSVKGRFTISRDNAKNTVYLQLNSLKPEETAVYYCATRSFRVFYPYPYDYWGQGTQVTVSS	high polyreactivity
QVQLVESGGGLVQAGGSLRLSCAASGIIFRRYAMGWYRQGPGKERELVAAITHRGSTYYADSVKGRFTISRDNAKNTVYLQMNSLKPEDTAVYYCAADGFTRWGRYDYWGQGTQVTVSS	high polyreactivity
QVQLVESGGGLVQAGGSLRLSCAASGIIFRRYARGWYRQAPGKERELVAAITSGGDTNYADSVKGRFTISRDNAKNTVYLQMNSLKPEDTAVYYSNAGLRGVRRYGFDYWGQGTQVTVSS	high polyreactivity
QVQLVESGGGLVQAGGSLRLSCAASGIIFRTYAMGWYRQAPGKERELVAAISGTTGSKYYADSVKGRFTISRDNAKNTVYLQMNSLKPEDTAVYYCAADFYWYIRYDYWGQGTQVTVSS	low polyreactivity

Reference: the nanobody polyreactivity screen of Harvey et al. (2022)
